This series can be described thus: self-splicing fitness, log relative to wild type (ln ratio); higher = more splicing; Tetrahymena group I intron in knt gene, E. coli kanamycin selection, DiMSum; sequences stand for … in CUCUCU…GGAGGGAAAAGUUAUCAGGCAUGCACCUGGUAGCUAGUCUUUAAACCAAUAGAUUGCAUCGGUUUAAAAGGCAAGACCGUCAAAUUGCGGGAAAGGGGUCAACAGCCGUUCAGUACCAAGUCUCAGGGGAAACUUUGAGAUGGCCUUGCAAAGGGUAUGGUAAUAAGCUGACGGACAUGGUCCUAACCACGCAGCCAAGUCCUAAGUCAACAGAUCUUCUGUUGAUAUGGAUGCAGUUCACAGACUAAAUGUCGGUCGGGGAAGAUGUAUUCUUCUCAUAAGAUAUAGUCGGACCUCUCCUUAAUGGGAGCUAGCGGAUGAAGUGAUGCAACACUGGAGCCGCUGGGAACUAAUUUGUAUGCGAAAGUAUAUUGAUUAGUUUUGGAGUACUCGUGGUCG
The essentials:
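A randomised library covering all eight P1ex-region intron nucleotides was built with the intron in the knt kanamycin-resistance gene on pET-22b(+) and held in E. coli BL21(DE3). Cells were grown overnight at 37°C or 30°C on LB agar, with or without 25 μg/mL kanamycin, plus 100 μg/mL carbenicillin, 50 μM IPTG and 0.2% rhamnose, and pooled colonies were amplicon-sequenced on an Illumina HiSeq 2500. DiMSum fitness is the error-weighted combination of wild-type-normalised replicate fold changes, kanamycin versus none.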

± gives the uncertainty stated by the source.

As to ACGCAGCAAUAUUACGUCAG, the “self-splicing fitness (ln)” value is -2.75 ± 0.12 (30 °C) and -3 ± 0.19 (37 °C).
GGGCAGCAAUAUUACGUCGA: the “self-splicing fitness (ln)” value reads like this: (30 °C) -0.0821 ± 0.07; (37 °C) 0.711 ± 0.1.
Turning to UAUCAGCAAUAUUACGCGUU, the “self-splicing fitness (ln)” value by setting is: (30 °C) -1.7 ± 0.13; (37 °C) -1 ± 0.17.
The like results for GUUAAGCAAUAUUACGGAUC were, in that order, -0.695 ± 0.09 and 0.135 ± 0.12.
The like results for AGACAGCAAUAUUACGACGU were, in that order, 0.00817 ± 0.047 and -0.185 ± 0.051.
Taken in the same sequence, the figures for AUACAGCAAUAUUACGAUAA were -1.37 ± 0.099 and -0.374 ± 0.11.
Regarding UUUGAGCAAUAUUACGUUUA, the “self-splicing fitness (ln)” value by setting is: (30 °C) -3.32 ± 0.24; (37 °C) -2.21 ± 0.23.
The like results for GGUAAGCAAUAUUACGAAUU were, in that order, -1.04 ± 0.11 and -0.205 ± 0.14.
The like results for AUAGAGCAAUAUUACGGUAA were, in that order, -1.76 ± 0.15 and -1.42 ± 0.17.
Taken in the same sequence, the figures for UUCCAGCAAUAUUACGCGCC were -2.72 ± 0.24 and -0.4 ± 0.21.
For the sequence UAUAAGCAAUAUUACGCGGG, the “self-splicing fitness (ln)” value runs as follows: (30 °C) -2.17 ± 0.14; (37 °C) -1.89 ± 0.18.
Regarding GAUAAGCAAUAUUACGUUUU, the “self-splicing fitness (ln)” value was -2.39 ± 0.098 (30 °C) and -1.48 ± 0.1 (37 °C).
Regarding GAGUAGCAAUAUUACGCCGU, the “self-splicing fitness (ln)” value (37 °C) is -1.08 ± 0.27.
On the same count and under the same terms, the value for CGAGAGCAAUAUUACGUCGU was -3.09 ± 0.37.
In the case of GACGAGCAAUAUUACGCGGC, the “self-splicing fitness (ln)” value (30 °C) was -3.25 ± 0.29.
GUCCAGCAAUAUUACGCCAC: for the setting “30 °C”, the “self-splicing fitness (ln)” value was -2.51 ± 0.44.
As to UAAGAGCAAUAUUACGAUGA, the “self-splicing fitness (ln)” value was -2.15 ± 0.22 (30 °C) and -2.63 ± 0.38 (37 °C).
The like results for GAUUAGCAAUAUUACGGGCU were, in that order, -2.8 ± 0.15 and -1.28 ± 0.12.
On to CGGGAGCAAUAUUACGCGAG, for which the “self-splicing fitness (ln)” value (37 °C) is -2.93 ± 0.32.
On to AGCUAGCAAUAUUACGCUAC, for which the “self-splicing fitness (ln)” value was -2.68 ± 0.48 (30 °C) and -2.77 ± 0.38 (37 °C).
Consider CCUUAGCAAUAUUACGCGGA, for which the “self-splicing fitness (ln)” value is -2.93 ± 0.19 (30 °C) and -2.55 ± 0.21 (37 °C).
The like results for GUUGAGCAAUAUUACGUUGG were, in that order, -4.19 ± 0.28 and -2.01 ± 0.31.
Taken in the same sequence, the figures for UACAAGCAAUAUUACGACGU were -0.941 ± 0.07 and -0.409 ± 0.081.
Taken in the same sequence, the figures for AACCAGCAAUAUUACGACUU were 0.018 ± 0.059 and 0.437 ± 0.077.
On to UAGCAGCAAUAUUACGUCUC, for which the “self-splicing fitness (ln)” value is -1.96 ± 0.17 (30 °C) and -0.915 ± 0.15 (37 °C).
On to AGAUAGCAAUAUUACGUCAU, for which the “self-splicing fitness (ln)” value runs as follows: (30 °C) -1.89 ± 0.097; (37 °C) -0.716 ± 0.096.
For UUGGAGCAAUAUUACGCUUG, the “self-splicing fitness (ln)” value (30 °C) was -2.69 ± 0.3 and the “self-splicing fitness (ln)” value (37 °C) was -1.25 ± 0.27.
Taken in the same sequence, the figures for AUCUAGCAAUAUUACGUGAC were -3.35 ± 0.26 and -1.14 ± 0.2.
Turning to UGACAGCAAUAUUACGGUAA, the “self-splicing fitness (ln)” value runs as follows: (30 °C) -1.85 ± 0.12; (37 °C) -0.692 ± 0.11.
The like results for UCCCAGCAAUAUUACGGCAU were, in that order, -2.77 ± 0.11 and -1.01 ± 0.11.
Regarding GGCGAGCAAUAUUACGAGGG, the “self-splicing fitness (ln)” value (30 °C) was -0.768 ± 0.24.
For AGGUAGCAAUAUUACGAUAC, the “self-splicing fitness (ln)” value by setting is: (30 °C) -2.318 ± 0.021; (37 °C) -1.16 ± 0.037.
With GUCCAGCAAUAUUACGGAGG, the “self-splicing fitness (ln)” value reads like this: (30 °C) -1.76 ± 0.06; (37 °C) -1.17 ± 0.078.
GGGGAGCAAUAUUACGGUCC: the “self-splicing fitness (ln)” value (30 °C) was -1.26 ± 0.46.
For the sequence UUGGAGCAAUAUUACGAUCA, the “self-splicing fitness (ln)” value by setting is: (30 °C) 0.364 ± 0.35; (37 °C) -0.451 ± 0.45.
Taken in the same sequence, the figures for AAAGAGCAAUAUUACGGCGC were -2.27 ± 0.2 and -0.545 ± 0.21.
Taken in the same sequence, the figures for CCGCAGCAAUAUUACGUAAU were -3.78 ± 0.15 and -2.3 ± 0.19.
Taken in the same sequence, the figures for CUACAGCAAUAUUACGGUGU were -3.23 ± 0.13 and -2.49 ± 0.14.
For the sequence CCGCAGCAAUAUUACGGGCG, the “self-splicing fitness (ln)” value reads like this: (30 °C) -2.13 ± 0.11; (37 °C) -1.95 ± 0.12.
UUUAAGCAAUAUUACGCCUG: the “self-splicing fitness (ln)” value was -0.642 ± 0.14 (30 °C) and -0.13 ± 0.14 (37 °C).

The values above are taken from the supplement of paper PMC7877785.
